Assay [1] concerns the target T1, FcγRIa extracellular domain with C-terminal His tag (human, UniProt P12314 16-292).
T1 construct: extracellular domain; Soluble receptor expressed in FreeStyle293 cells; analyte in Biacore; also called FcgRI; FcgRIa; not shown: His tag at the C terminus
In words: SPR (Biacore); He/Con_1a divided by He/Con_2b (FcγRIIb). The method in brief:
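Each FcγR was diluted in HBS-EP+ and injected at 25 °C over antibody held by an antigen-peptide sensor surface. Bound antibody was stripped with 10 mM glycine-HCl, pH 1.5, so chips could be reused.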

The target in assay [2] is T2, FcγRIIb extracellular domain with C-terminal His tag (human, UniProt P31994 43-217).
T2 construct: extracellular domain; Soluble receptor expressed in FreeStyle293 cells; analyte in Biacore; also called FcgRIIb; 2b; not shown: His tag at the C terminus
T2 sequence (looked up): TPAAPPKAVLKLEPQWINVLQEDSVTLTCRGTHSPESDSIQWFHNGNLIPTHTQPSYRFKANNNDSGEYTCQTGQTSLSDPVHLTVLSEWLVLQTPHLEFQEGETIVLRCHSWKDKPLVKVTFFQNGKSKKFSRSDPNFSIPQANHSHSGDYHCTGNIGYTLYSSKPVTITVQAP
In words: SPR (Biacore), antibody captured on antigen peptide chip, FcγR as analyte; binding relative to GpH7-A5/GpH7-B3/GpL16-k0 = 100.

In assay [3] the target is T1, FcγRIa extracellular domain with …. The assay is described as above.

T1 sequence (P12314 16-292): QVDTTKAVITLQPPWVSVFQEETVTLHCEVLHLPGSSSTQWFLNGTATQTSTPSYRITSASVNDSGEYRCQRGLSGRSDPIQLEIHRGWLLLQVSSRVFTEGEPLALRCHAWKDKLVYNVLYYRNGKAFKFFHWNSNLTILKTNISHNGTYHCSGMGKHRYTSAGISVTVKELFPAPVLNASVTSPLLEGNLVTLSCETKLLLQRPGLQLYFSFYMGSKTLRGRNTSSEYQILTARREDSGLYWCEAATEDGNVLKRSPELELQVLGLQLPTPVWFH

B1: GpH7-A5/GpH7-B3 variant P329_12R/GpL16-k0 (antibody, human IgG1, kappa)
heavy 1: not shown
heavy 2: not shown
light: DIVMTQSPLSLPVTPGEPASISCQASESLVHSNRNTYLHWYLQKPGQSPQLLIYKVSNRFSGVPDRFSGSGSGTDFTLKISRVEAEDVGVYYCSQNTHVPPTFGQGTKVEIERTVAAPSVFIFPPSDEQLKSGTASVVCLLNNFYPREAKVQWKVDNALQSGNSQESVTEQDSKDSTYSLSSTLTLSKADYEKHKVYACEVTHQGLSSPVTKSFNRGEC
notes: He Ab: substitution in one H chain only; also called He Ab P329R
For B1, the “He_1a/2b (Ia/IIb)” value in assay [1] stood at 4.22. Moreover, the “He/Con_2b (IIb binding)” value in assay [2] is 17.6 % of control (control = 100). The “He/Con_1a (Ia binding)” value in assay [3] was 74.3 % of control (control = 100).

B2: GpH7-A5/GpH7-B3 variant P331_01G/GpL16-k0 (antibody, human IgG1, kappa)
heavy 1: not shown
heavy 2: not shown
light: DIVMTQSPLSLPVTPGEPASISCQASESLVHSNRNTYLHWYLQKPGQSPQLLIYKVSNRFSGVPDRFSGSGSGTDFTLKISRVEAEDVGVYYCSQNTHVPPTFGQGTKVEIERTVAAPSVFIFPPSDEQLKSGTASVVCLLNNFYPREAKVQWKVDNALQSGNSQESVTEQDSKDSTYSLSSTLTLSKADYEKHKVYACEVTHQGLSSPVTKSFNRGEC
notes: He Ab: heterodimerized anti-glypican-3 IgG1, substitution in one H chain only; also called He Ab P331G
Consider B2, for which, in assay [1], the “He_1a/2b (Ia/IIb)” value is 1.88. Also, the “He/Con_2b (IIb binding)” value in assay [2] was 45.4 % of control (control = 100). Further, the “He/Con_1a (Ia binding)” value in assay [3] was 85.3 % of control (control = 100).

B3: GpH7-A5/GpH7-B3 variant P329_18N/GpL16-k0 (antibody, human IgG1, kappa)
heavy 1: not shown
heavy 2: not shown
light: DIVMTQSPLSLPVTPGEPASISCQASESLVHSNRNTYLHWYLQKPGQSPQLLIYKVSNRFSGVPDRFSGSGSGTDFTLKISRVEAEDVGVYYCSQNTHVPPTFGQGTKVEIERTVAAPSVFIFPPSDEQLKSGTASVVCLLNNFYPREAKVQWKVDNALQSGNSQESVTEQDSKDSTYSLSSTLTLSKADYEKHKVYACEVTHQGLSSPVTKSFNRGEC
notes: He Ab: heterodimerized anti-glypican-3 IgG1, substitution in one H chain only; also called He Ab P329N
B3: in assay [1], the “He_1a/2b (Ia/IIb)” value was found to be 2.29. Also, the “He/Con_2b (IIb binding)” value in assay [2] is 40.4 % of control (control = 100). Further, in assay [3], the “He/Con_1a (Ia binding)” value was 92.4 % of control (control = 100).

B4: GpH7-A5/GpH7-B3 variant P329_11K/GpL16-k0 (antibody, human IgG1, kappa)
heavy 1: not shown
heavy 2: not shown
light: DIVMTQSPLSLPVTPGEPASISCQASESLVHSNRNTYLHWYLQKPGQSPQLLIYKVSNRFSGVPDRFSGSGSGTDFTLKISRVEAEDVGVYYCSQNTHVPPTFGQGTKVEIERTVAAPSVFIFPPSDEQLKSGTASVVCLLNNFYPREAKVQWKVDNALQSGNSQESVTEQDSKDSTYSLSSTLTLSKADYEKHKVYACEVTHQGLSSPVTKSFNRGEC
notes: He Ab: substitution in one H chain only; also called He Ab P329K
For the molecule B4, the “He_1a/2b (Ia/IIb)” value in assay [1] was found to be 4.17. Also, the “He/Con_2b (IIb binding)” value in assay [2] is 16.9 % of control (control = 100). Besides, in assay [3], the “He/Con_1a (Ia binding)” value was 70.4 % of control (control = 100).

B5: GpH7-A5/GpH7-B3 variant P329_20W/GpL16-k0 (antibody, human IgG1, kappa)
heavy 1: not shown
heavy 2: not shown
light: DIVMTQSPLSLPVTPGEPASISCQASESLVHSNRNTYLHWYLQKPGQSPQLLIYKVSNRFSGVPDRFSGSGSGTDFTLKISRVEAEDVGVYYCSQNTHVPPTFGQGTKVEIERTVAAPSVFIFPPSDEQLKSGTASVVCLLNNFYPREAKVQWKVDNALQSGNSQESVTEQDSKDSTYSLSSTLTLSKADYEKHKVYACEVTHQGLSSPVTKSFNRGEC
notes: He Ab: heterodimerized anti-glypican-3 IgG1, substitution in one H chain only; also called He Ab P329W
Regarding B5, in assay [1], the “He_1a/2b (Ia/IIb)” value came to 2.15. Besides, in assay [2], the “He/Con_2b (IIb binding)” value is 45.1 % of control (control = 100). In addition, in assay [3], the “He/Con_1a (Ia binding)” value is 96.9 % of control (control = 100).

B6: GpH7-A5/GpH7-B3 variant P329_08L/GpL16-k0 (antibody, human IgG1, kappa)
heavy 1: not shown
heavy 2: not shown
light: DIVMTQSPLSLPVTPGEPASISCQASESLVHSNRNTYLHWYLQKPGQSPQLLIYKVSNRFSGVPDRFSGSGSGTDFTLKISRVEAEDVGVYYCSQNTHVPPTFGQGTKVEIERTVAAPSVFIFPPSDEQLKSGTASVVCLLNNFYPREAKVQWKVDNALQSGNSQESVTEQDSKDSTYSLSSTLTLSKADYEKHKVYACEVTHQGLSSPVTKSFNRGEC
notes: He Ab: heterodimerized anti-glypican-3 IgG1, substitution in one H chain only; also called He Ab P329L
B6: the “He_1a/2b (Ia/IIb)” value in assay [1] was 2.95. Moreover, the “He/Con_2b (IIb binding)” value in assay [2] was 29.1 % of control (control = 100). For the same molecule, in assay [3], the “He/Con_1a (Ia binding)” value was 85.7 % of control (control = 100).

B7: GpH7-A5/GpH7-B3 variant P329_14T/GpL16-k0 (antibody, human IgG1, kappa)
heavy 1: not shown
heavy 2: not shown
light: DIVMTQSPLSLPVTPGEPASISCQASESLVHSNRNTYLHWYLQKPGQSPQLLIYKVSNRFSGVPDRFSGSGSGTDFTLKISRVEAEDVGVYYCSQNTHVPPTFGQGTKVEIERTVAAPSVFIFPPSDEQLKSGTASVVCLLNNFYPREAKVQWKVDNALQSGNSQESVTEQDSKDSTYSLSSTLTLSKADYEKHKVYACEVTHQGLSSPVTKSFNRGEC
notes: He Ab: heterodimerized anti-glypican-3 IgG1, substitution in one H chain only; also called He Ab P329T
For B7, the “He_1a/2b (Ia/IIb)” value in assay [1] worked out at 2.37. Moreover, the “He/Con_2b (IIb binding)” value in assay [2] was 37.9 % of control (control = 100). Further, the “He/Con_1a (Ia binding)” value in assay [3] is 89.7 % of control (control = 100).

B8: GpH7-A5/GpH7-B3 variant P329_16H/GpL16-k0 (antibody, human IgG1, kappa)
heavy 1: not shown
heavy 2: not shown
light: DIVMTQSPLSLPVTPGEPASISCQASESLVHSNRNTYLHWYLQKPGQSPQLLIYKVSNRFSGVPDRFSGSGSGTDFTLKISRVEAEDVGVYYCSQNTHVPPTFGQGTKVEIERTVAAPSVFIFPPSDEQLKSGTASVVCLLNNFYPREAKVQWKVDNALQSGNSQESVTEQDSKDSTYSLSSTLTLSKADYEKHKVYACEVTHQGLSSPVTKSFNRGEC
notes: He Ab: heterodimerized anti-glypican-3 IgG1, substitution in one H chain only; also called He Ab P329H
As for B8, in assay [1], the “He_1a/2b (Ia/IIb)” value turned out to be 2.45. For the same molecule, the “He/Con_2b (IIb binding)” value in assay [2] is 39.1 % of control (control = 100). In assay [3], the “He/Con_1a (Ia binding)” value was 95.6 % of control (control = 100).

Values taken from patent US20180155451A1 (published 2018).
